Measurements as given in PMC5103362 (Autophagy, 2016).

T1: Vps15 (subunit of the purified yeast complex I) (S. cerevisiae, UniProt P22219 1-1454)
T1 construct: Vps15, S. cerevisiae
T1 sequence (looked up): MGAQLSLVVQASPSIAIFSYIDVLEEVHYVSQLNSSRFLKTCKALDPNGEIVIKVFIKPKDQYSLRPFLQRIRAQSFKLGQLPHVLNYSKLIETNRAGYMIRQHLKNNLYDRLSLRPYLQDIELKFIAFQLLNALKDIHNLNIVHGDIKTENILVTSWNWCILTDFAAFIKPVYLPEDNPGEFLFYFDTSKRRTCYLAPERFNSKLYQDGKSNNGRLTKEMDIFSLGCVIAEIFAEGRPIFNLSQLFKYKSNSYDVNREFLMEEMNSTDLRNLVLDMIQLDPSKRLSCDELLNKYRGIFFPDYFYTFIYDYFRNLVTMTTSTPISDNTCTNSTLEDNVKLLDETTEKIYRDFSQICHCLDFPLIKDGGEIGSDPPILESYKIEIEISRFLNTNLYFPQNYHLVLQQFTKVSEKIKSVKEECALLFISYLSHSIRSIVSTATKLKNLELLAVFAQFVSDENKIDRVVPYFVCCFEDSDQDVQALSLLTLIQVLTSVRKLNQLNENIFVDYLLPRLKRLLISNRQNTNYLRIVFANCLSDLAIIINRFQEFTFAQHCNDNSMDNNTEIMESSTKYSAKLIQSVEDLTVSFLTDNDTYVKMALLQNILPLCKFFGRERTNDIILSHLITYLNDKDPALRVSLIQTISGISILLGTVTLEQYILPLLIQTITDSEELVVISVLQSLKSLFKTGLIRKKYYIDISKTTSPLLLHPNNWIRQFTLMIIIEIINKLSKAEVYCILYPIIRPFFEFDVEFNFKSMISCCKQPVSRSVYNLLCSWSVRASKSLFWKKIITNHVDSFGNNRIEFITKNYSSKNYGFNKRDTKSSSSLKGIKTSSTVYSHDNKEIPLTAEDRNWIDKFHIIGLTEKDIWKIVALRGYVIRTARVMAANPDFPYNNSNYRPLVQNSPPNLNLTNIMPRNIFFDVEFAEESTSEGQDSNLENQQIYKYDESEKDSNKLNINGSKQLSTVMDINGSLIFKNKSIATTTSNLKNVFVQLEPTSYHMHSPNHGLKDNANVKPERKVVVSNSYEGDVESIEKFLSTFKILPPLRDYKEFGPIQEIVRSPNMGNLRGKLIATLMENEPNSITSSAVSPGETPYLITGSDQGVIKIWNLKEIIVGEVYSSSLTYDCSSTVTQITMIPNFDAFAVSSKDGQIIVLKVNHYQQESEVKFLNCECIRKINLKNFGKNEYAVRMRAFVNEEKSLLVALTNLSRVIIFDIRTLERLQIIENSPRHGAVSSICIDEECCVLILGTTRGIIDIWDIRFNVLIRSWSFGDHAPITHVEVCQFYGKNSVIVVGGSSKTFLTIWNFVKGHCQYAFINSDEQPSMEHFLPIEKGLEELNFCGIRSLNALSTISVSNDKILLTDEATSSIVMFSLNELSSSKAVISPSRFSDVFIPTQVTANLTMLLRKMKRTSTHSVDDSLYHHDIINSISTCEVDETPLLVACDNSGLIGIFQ


Assays:
[1] = molecular target: T2, yeast complex I (Vps15-Vps34-Vps30-Atg14 heterotetramer) (S. cerevisiae, UniProt P22219 1-1454; P22543 1-875; Q02948 1-557; P38270 1-344); assay: pull-down; GST affinity isolation: GST fusions of Atg38 on glutathione Sepharose, purified yeast complex I at 1.78 µM with 10-fold excess of GST fusion; 50 mM Tris pH 8.8, 150 mM NaCl, 1 mM TCEP, on ice 90 min; stained gel; conditions: both partners purified
T2 construct: Vps15, S. cerevisiae, subunit of complex I; Vps34, S. cerevisiae, subunit of complex I; Vps30/Atg6, S. cerevisiae, subunit of complex I; Atg14, S. cerevisiae, subunit of complex I; expected mass 379 kDa; also called CI; heterotetrameric S. cerevisiae complex I; copies: 1 + 1 + 1 + 1

[2] = molecular target: the molecule itself; assay: SEC-MALS; Atg38 full-length, MIT domain and deletion variants alone on S75 10/30; 20 mM Tris pH 7.9, 300 mM NaCl, 1 mM TCEP
[3] = molecular target: T1, Vps15 (subunit of the purified yeast …); assay: SEC-MALS; purified yeast complex I (co-expressed, co-purified) and gel-filtration purified complex I + Atg38 on S200 10/30; 20 mM Tris pH 8.8, 150 mM NaCl, 1 mM TCEP; conditions: both partners purified
[4] = molecular target: the molecule itself; assay: crystal structure; full-length Atg38 after limited proteolysis with subtilisin; 2.2 Å, MAD with selenomethionine protein

Row | Binder | stoichiometry N [2] | stoichiometry N [3] | further results
1 | GST-Atg38 (1 to 78) (domain or fragment, S. cerevisiae, UniProt Q05789 1-78, looked up, Atg38, S. cerevisiae, MIT domain, residues 1 to 78; also called MIT domain alone; source: E. coli, purified (Glutathione Sepharose, eluted with glutathione); not shown: GST, N-terminal, kept) MSTLAEVYTIIEDAEQECRKGDFTNAKAKYQEAIEVLGPQNENLSQNKLSSDVTQAIDLLKQDITAKIQELELLIEKQ |  |  | binding result [1]: binds
2 | Atg38 capΔ (123 to 181 deleted), recombinant (natural protein, S. cerevisiae, UniProt Q05789 1-226, looked up, GST fusions were eluted with glutathione or cut with TEV as needed; likely cut for SEC-MALS; source: E. coli, purified (Glutathione Sepharose, S75)) MSTLAEVYTIIEDAEQECRKGDFTNAKAKYQEAIEVLGPQNENLSQNKLSSDVTQAIDLLKQDITAKIQELELLIEKQSSEENNIGMVNNNMLIGSVILNNKSPINGISNARNWDNPAYQDTFKEYGMKIDEITKENKKLANEIGRLRERWDSLVESAKQRRDKQKN | 2 |  | 
3 | Atg38 tailΔ (210 to 226 deleted), recombinant (domain or fragment, S. cerevisiae, UniProt Q05789 1-209, looked up, Atg38, S. cerevisiae; GST fusions were eluted with glutathione or cut with TEV as needed; likely cut for SEC-MALS; source: E. coli, purified (Glutathione Sepharose, S75)) MSTLAEVYTIIEDAEQECRKGDFTNAKAKYQEAIEVLGPQNENLSQNKLSSDVTQAIDLLKQDITAKIQELELLIEKQSSEENNIGMVNNNMLIGSVILNNKSPINGISNARNWDNPAYQDTLSPINDPLLMSILNRLQFNLNNDIQLKTEGGKNSKNSEMKINLRLEQFKKELVLYEQKKFKEYGMKIDEITKENKKLANEIGRLRER | 2 |  | 
4 | Atg38 stalkΔ (182 to 209 deleted), recombinant (natural protein, S. cerevisiae, UniProt Q05789 1-226, looked up, GST fusions were eluted with glutathione or cut with TEV as needed; likely cut for SEC-MALS; source: E. coli, purified (Glutathione Sepharose, S75)) MSTLAEVYTIIEDAEQECRKGDFTNAKAKYQEAIEVLGPQNENLSQNKLSSDVTQAIDLLKQDITAKIQELELLIEKQSSEENNIGMVNNNMLIGSVILNNKSPINGISNARNWDNPAYQDTLSPINDPLLMSILNRLQFNLNNDIQLKTEGGKNSKNSEMKINLRLEQFKKELVLYEQKKWDSLVESAKQRRDKQKN | 2 |  | 
5 | Vps30/Atg6 (subunit of the purified yeast complex I) (natural protein, S. cerevisiae, UniProt Q02948 1-557, looked up, Vps30/Atg6, S. cerevisiae) MKCQTCHLPLQLDPSLEGLSLTQRNLLLSNNSIITATNENVISNKGIEAADNCGPQIPKERLRRLGEIQNIKDLNLKDDKLITDSFVFLNHDDDDNANITSNSREDQRYGNANGNDNKKANSDTSDGTSTFRDHDEEEQEATDEDENQQIQLNSKTLSTQVNAMTNVFNILSSQTNIDFPICQDCCNILINRLKSEYDDAIKERDTYAQFLSKLESQNKEISESNKEKQYSHNLSEKENLKKEEERLLDQLLRLEMTDDDLDGELVRLQEKKVQLENEKLQKLSDQNLMDLNNIQFNKNLQSLKLQYELSLNQLDKLRKINIFNATFKISHSGPFATINGLRLGSIPESVVPWKEINAALGQLILLLATINKNLKINLVDYELQPMGSFSKIKKRMVNSVEYNNSTTNAPGDWLILPVYYDENFNLGRIFRKETKFDKSLETTLEIISEITRQLSTIASSYSSQTLTTSQDESSMNNANDVENSTSILELPYIMNKDKINGLSVKLHGSSPNLEWTTAMKFLLTNVKWLLAFSSNLLSKSITLSPTVNYNDKTISGN |  | 1 | 
6 | Atg38 C-terminal homodimerization domain (crystallized region, residues 119 to 211) (domain or fragment, S. cerevisiae, UniProt Q05789 119-211, looked up, Atg38, S. cerevisiae, crystallized region, residues 119 to 211; Limits are those seen in the crystal; the proteolysed protein was not purified further; A selenomethionine derivative was used for phasing; also called Atg38 C-terminal domain; C-terminal region of Atg38; source: E. coli, purified full-length Atg38 subjected to limited proteolysis with subtilisin) YQDTLSPINDPLLMSILNRLQFNLNNDIQLKTEGGKNSKNSEMKINLRLEQFKKELVLYEQKKFKEYGMKIDEITKENKKLANEIGRLRERWD |  |  | binding result [4]: binds
7 | Atg14 (subunit of the purified yeast complex I) (natural protein, S. cerevisiae, UniProt P38270 1-344, looked up, Atg14, S. cerevisiae) MHCPICHHRAHVVYCAHCINTSPSLLLKLKLDLILLKDENKELNGKVEQILNEAMNYDQLDIKRMEKKKDPLMNSLMKLDVLRMKKNNNLIRHRIEQLNERIYSKRNHISELKVEIDNYKCYKVGTGTDKLREQVEISDAKNKLAQVSKICESARDYKLNLLNNWFVIQKLQDNFQIPFAIAFQPLISLKNFRILPLAITNDSINIMWKYISFFSDILMIKLPYTNKICEQPMFEFSDSIQTVVQRLIKLIINILQICRHLKLVPSTPMDIPWLLDQYDVDGLFYNMVKRNKMKCRSVSLYWTFGMLYSMVLDNMNNPQRGHPARRTAPPPTVTGPHDRWYVVG |  | 1 | 
8 | Vps34 (subunit of the purified yeast complex I) (enzyme, S. cerevisiae, UniProt P22543 1-875, looked up, Vps34, S. cerevisiae) MSLNNITFCVSQDLDVPLKVKIKSLEGHKPLLKPSQKILNPELMLIGSNVFPSSDLIVSLQVFDKERNRNLTLPIYTPYIPFRNSRTWDYWLTLPIRIKQLTFSSHLRIILWEYNGSKQIPFFNLETSIFNLKDCTLKRGFESLKFRYDVIDHCEVVTDNKDQENLNKYFQGEFTRLPWLDEITISKLRKQRENRTWPQGTFVLNLEFPMLELPVVFIEREIMNTQMNIPTLKNNPGLSTDLREPNRNDPQIKISLGDKYHSTLKFYDPDQPNNDPIEEKYRRLERASKNANLDKQVKPDIKKRDYLNKIINYPPGTKLTAHEKGSIWKYRYYLMNNKKALTKLLQSTNLREESERVEVLELMDSWAEIDIDDALELLGSTFKNLSVRSYAVNRLKKASDKELELYLLQLVEAVCFENLSTFSDKSNSEFTIVDAVSSQKLSGDSMLLSTSHANQKLLKSISSESETSGTESLPIVISPLAEFLIRRALVNPRLGSFFYWYLKSESEDKPYLDQILSSFWSRLDKKSRNILNDQVRLINVLRECCETIKRLKDTTAKKMELLVHLLETKVRPLVKVRPIALPLDPDVLICDVCPETSKVFKSSLSPLKITFKTTLNQPYHLMFKVGDDLRQDQLVVQIISLMNELLKNENVDLKLTPYKILATGPQEGAIEFIPNDTLASILSKYHGILGYLKLHYPDENATLGVQGWVLDNFVKSCAGYCVITYILGVGDRHLDNLLVTPDGHFFHADFGYILGQDPKPFPPLMKLPPQIIEAFGGAESSNYDKFRSYCFVAYSILRRNAGLILNLFELMKTSNIPDIRIDPNGAILRVRERFNLNMSEEDATVHFQNLINDSVNALLPIVIDHLHNLAQYWRT |  | 1 | 
